The record followed here is patent publication US20040072179.

Like-named read-outs stand apart in the source and are kept apart here.

For data set [1], the system named is 17 kDa substrate containing the target cleavage site Glu-Asn-Leu-Tyr-Phe-Gln-Gly (SEQ ID NO: 5).
Data set [2] deals with 17 kDa substrate containing the target cleavage site Glu-Asn-Leu-Tyr-Phe-Gln-Gly (SEQ ID NO: 5). This is another data set of the same source.

For the molecule “TPSN (mutant 27 kDa NIa proteinase with Ser219 to Asn mutation, C-terminal His6 tag)”, the “specific activity for substrate cleavage” value in data set [1] is “TPWT and TPSN have similar activity to each other and to the commercially available proteinase at all substrate concentrations tested”.

B1: commercially available 27 kDa NIa proteinase (GibcoBRL) (protein)
chain: GESLFKGPRDYNPISSTICHLTNESDGHTTSLYGIGFGPFIITNKHLFRRNNGTLLVQSLHGVFKVKNTTTLQQHLIDGRDMIIIRMPKDFPPFPQKLKFREPQREERICLVTTNFQTKSMSSMVSDTSCTFPSSDGIFWKHWIQTKDGQCGSPLVSTRDGFIVGIHSASNFTNTNNYFTSVPKNFMELLTNQEAQQWVSGWRLNADSVLWGGHKVFMSKPEEPFQPVKEATQLMNELVYSQ
For the molecule B1, in data set [2], the “specific activity for substrate cleavage” value was “TPWT and TPSN have similar activity to each other and to the commercially available proteinase at all substrate concentrations tested”; the “substrate cleavage (SDS-PAGE)” value is on record as “produces a ˜15 kDa peptide when cleaved with commercially available 27 kDa NIa proteinase (GibcoBRL)”.

B2: TPWT (wild type 27 kDa NIa proteinase of tobacco etch virus, C-terminal His6 tag) (protein)
chain: MAESGESLFKGPRDYNPISSTICHLTNESDGHTTSLYGIGFGPFIITNKHLFRRNNGTLLVQSLHGVFKVKNTTTLQQHLIDGRDMIIIRMPKDFPPFPQKLKFREPQREERICLVTTNFQTKSMSSMVSDTSCTFPSSDGIFWKHWIQTKDGQCGSPLVSTRDGFIVGIHSASNFTNTNNYFTSVPKNFMELLTNQEAQQWVSGWRLNADSVLWGGHKVFMSKPEEPFQPVKEATQLMNELVYSQLHHHHHH
As for B2, the “specific activity for substrate cleavage” value in data set [2] was “TPWT and TPSN have similar activity to each other and to the commercially available proteinase at all substrate concentrations tested”.
